Consider 41 sequences from the nanobody polyreactivity screen of Harvey et al. (2022).

The series in a line: yeast display, Sf9 membrane polyspecificity reagent, FACS + sequencing; frameworks hold sequencing errors. The gist of the method: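 Galactose-induced (36–48 hours) yeast carrying a synthetic nanobody display library were exposed to 10% biotinylated, detergent-solubilized Sf9 membrane reagent at 4 °C for 1 hour. FACS followed streptavidin microbead enrichment, using low and high (top ~1%) gates for expression (anti-HA) and reagent binding (streptavidin). Colony PCR, MiSeq 2 × 250 sequencing and CDR-length filtering followed. Labels for polyreactivity reflect the gate of origin.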
Turning to “QVQLVESGGGLVQAGGSLRLSCAASGRTFSRYAIGWYRQAPGKERDLVAAITRTGGSTYYADSVKGRFTISRDNAKNTVYLQMNSLKPEDTAVYYCAAAYPGVWYDYNYWGQGTQVTVSS”, the “polyreactivity (PSR sort gate)” value was “high polyreactivity”.
With “QVQLVESGGGLVQAGGSLRLSCAASGRTFSRYAMGWYRQAPGKERELVAAIRGNSGNTYYADSVKGRFTISRDNAKNTVYLQMNSLKPEDTAVYYCAKPFNIWGQGTQVTVSS” the entry was “high polyreactivity”; with “QVQLVESGGGLVQAGGSLRLSCAASGRTFSRYTMGWYRQAPGKERELVAAISVNGGTTHYADSVKGRFTISRDNAKNTVYLQMNSLKPEDTAVYYCNARRRVGKYKYDYWGQGTQVTVSS”, “high polyreactivity”; with “QVQLVESGGGLVQAGGSLRLSCAASGRTFSSNAKGWYRQAPGKERELVASISFRGGRTYYADSVKGRFTISRDNAKNTVYLQMNSLKPEDTAVYYCVSGTIRTGYGYWGQGTQVTVSS”, “high polyreactivity”.
With “QVQLVESGGGLVQAGGSLRLSCAASGRTFSSYAMGWYRQAPGKERELVAAITRTGGRTYYAYSVKGRFTISRDNAKNSVYLQMNSLKPEDTAVYFCAALYIYRTFAALSRYDYWGQGTQVTVSS” the entry was “high polyreactivity”; with “QVQLVESGGGLVQAGGSLRLSCAASGRTFSSYTMGWYRQAPGKERELVASITNNGGSTYYADSVKGRFTISRDNAKNTVYLQMNSLKPEDTAVYYCAVDSRGKLGISGEYGYWGQGTQVTVSS”, “low polyreactivity”.
For “QVQLVESGGGLVQAGGSLRLSCAASGRTFSVNAMGWYRKAPGKERELVAAISWSTGSTYYADSVKGRFTISRDNAKNTVSLQMNSLKPEDTAVYYCAKLYEYRRSRYRTYGYWGQGTQVTVSS” the value was “high polyreactivity”.
In the case of “QVQLVESGGGLVQAGGSLRLSCAASGRTFSVNAMGWYRPAPGKERELVAAISSGGGTNYADSVKGRFTISRDNAKNTVYLQMNSLKPEDTAVYYCAARTFGYPSHRQEMEYWGQGTQVTVSS”, the “polyreactivity (PSR sort gate)” value was “low polyreactivity”.
For “QVQLVESGGGLVQAGGSLRLSCAASGRTFSVNAMGWYRQAPGKERELVAAITSGASTNYADSVKGRFTISRDNAKNTVYLQMNSLKPEDTAVYYCAADYLYHQTSRGKYYSWGQGTQVTVSS” the value was “low polyreactivity”; for “QVQLVESGGGLVQAGGSLRLSCAASGRTFSVNAMGWYRQAPGKEREMVAAITSGASTNYADSVKGRFTISRDNAKNTVYLQMNSLKPEDTAVYYCAADATYGHVPAEYDYWGQGTQVTVSS”, “low polyreactivity”; for “QVQLVESGGGLVQAGGSLRLSCAASGRTFSVNAMGWYRQAPGNERELVAARRTGDSTNYADSVKGRFTFSRDNAKYTVYLPMNSLKPEDTSVDYCAADVWGSSAQRGWRKYYYWGQGTQVTVSS”, “high polyreactivity”.
With “QVQLVESGGGLVQAGGSLRLSCAASGRTFSVYAMVWYRQAPGKERELVADITRRGGSTTYADSVKGRFTISRDNAKNTVDLQMNSLKPEDTAVYYFNADGKAGGDYDYWGQGTQVTVSS” the entry was “low polyreactivity”.
With “QVQLVESGGGLVQAGGSLRLSCAASGRTFSVYTMGWYRQAPGKERELVASINWSGGRTYYADSVKGRFTISRDNAKNSVYLQMNSLKPEDTAVYYCAATGWRTLYDYWGQGTQVTVSS” the entry was “high polyreactivity”; with “QVQLVESGGGLVQAGGSLRLSCAASGRTFSYNAMGWYRQAPGKERELVAGISSRGGSTYYADSVKGRFTISRDNAKNTVYLQMNSLKPEDTAVYYCNALGRGKDSYSGVDYWGQGTQVTVSS”, “high polyreactivity”.
In the case of “QVQLVESGGGLVQAGGSLRLSCAASGRTFSYNTMGCYRQAPGKERELVARITWGGGSTNYADSVKGRFTISRDNAKNTVYLQMNSLKPEDTAVYYCAREYSSVYWVRHLFYYWGQGTQVTVSS”, the “polyreactivity (PSR sort gate)” value is on record as “low polyreactivity”.
With “QVQLVESGGGLVQAGGSLRLSCAASGRTFSYNTMGWYRQAPGKVSELVAAISTGVSTYYADSVKGRFTISRDNAKNTVYLQMNSLKPEDTEVYYCARGGRPRWYPPHNYWGQGTQLTVSS” the entry was “low polyreactivity”; with “QVQLVESGGGLVQAGGSLRLSCAASGRTFSYYAMGCYRQAPGKERELVAAISQRGGSTYYADSVKGRFTISRDNAKNTVYLQMNSLKPEDTAVYYCAVLVSRYRYRVLDDYWGQGTQVTVSS”, “high polyreactivity”.
Consider “QVQLVESGGGLVQAGGSLRLSCAASGRTFSYYAMGWYRQAPGKERELVAAISSGGSTNYADSVKGRFTISRDNAKNTVYLQMNSLKPEDTAVYYCATSSIWGSGRVRWVTYYYWGQGTQVTVSS”, for which the “polyreactivity (PSR sort gate)” value is “low polyreactivity”.
Regarding “QVQLVESGGGLVQAGGSLRLSCAASGRTFSYYAMGWYRQAPGKERELVAGISWRGTSTYADSVKGRFTISRDNAKNTVYLQMNSLKPEDTAVYYWNAEVTGHYSYHKFDYWGQGTQVTVSS”, the “polyreactivity (PSR sort gate)” value was “low polyreactivity”.
In the case of “QVQLVESGGGLVQAGGSLRLSCAASGRTFSYYAMGWYRQAPGKERELVAVITSSGGSTSYADSVKGRFTISRDNAKNTVYLQMNSLKPEDTAVYYCAADPLAVSWAYYLFGVDYWGQGTQVTVSS”, the “polyreactivity (PSR sort gate)” value was “high polyreactivity”.
With “QVQLVESGGGLVQAGGSLRLSCAASGRTFSYYGMGWYRQAPGKERELVAAITNSVGRTYYADSVKGRFTISRDNEKNTVYLHMNSLKPEDTAVYYCKKYGRYYYWGQGTQVTVSS” the entry was “low polyreactivity”; with “QVQLVESGGGLVQAGGSLRLSCAASGRTFTAYAMGWYRQAPGKERELVAAISVGGGSTYYADSVKGRFTISRDNAKNTVYLQMNSLKPEDTAVYYCAADRSYYLDGYDYWGQGTQVTVSS”, “low polyreactivity”; with “QVQLVESGGGLVQAGGSLRLSCAASGRTFTFYTMGWYRQAPGKERELVAAITRSGGGTYYADSVKGRFTISRDNAKNTVYLQMNSLKPEDTAVYYCAAYNRNAFHWGQGTQVTVSS”, “high polyreactivity”.
For “QVQLVESGGGLVQAGGSLRLSCAASGRTFTGNALGWYRQAPGKERELVAAISQRGGRTNYADSVKGRFTISRDNAKNTVYLQMNSLKPEDTAVYYCAADLGYYYFFGSNYAYDYWGQGTQVNVSS” the value was “low polyreactivity”; for “QVQLVESGGGLVQAGGSLRLSCAASGRTFTGYAMGWYRQAPGKEREFVAAITQRGGSTYYADSVKGRFTISRDTAKNTVYLQMNSLKPEDTAVYYCAARRRYKMDYWGQGTQVTVSS”, “high polyreactivity”.
As to “QVQLVESGGGLVQAGGSLRLSCAASGRTFTHYDMGWYRQAPGKERELVAAISSGCGTYYADSVKGRFTISRDNAKNTVYLQMNSLKPEDTAVYYCNADYTNYHDPFRTYGYWGQGTQVTVSS”, the “polyreactivity (PSR sort gate)” value is given as “low polyreactivity”.
For “QVQLVESGGGLVQAGGSLRLSCAASGRTFTINGMGWYRQAPGKERELVAGINWRDGRTYYADSVKGRFTISRDNAKNTVYLQMNSLKPEDTAVYYCNVEVAESFDYWVQGTQVTVSS” the value was “low polyreactivity”; for “QVQLVESGGGLVQAGGSLRLSCAASGRTFTIYAMGWYRQAPGKEREFVASITGSDGSTYYADSVKGRFTISRDNAKNTVYLQMNSLKPEDTAVYYCAAKRYVYPSYRFDYWGQGTQVTVSS”, “low polyreactivity”; for “QVQLVESGGGLVQAGGSLRLSCAASGRTFTIYTMGWYRQAPGKERELVAAISRGGRTNYADSVKGRFTISRDNAKNTVYLQMNSLKPEDTAVYYCNADGSRYYTAYRLRLPYDYWGQGTQVTVSS”, “high polyreactivity”.
With “QVQLVESGGGLVQAGGSLRLSCAASGRTFTLYAMGWYRQAPGKERELVASITTGGRTYYADSVKGRFTISRDNAKNTVYLKMNSLKPEDTAVYYCNADRVYAWYRTYEYWGQGTEVTVSS” the entry was “high polyreactivity”; with “QVQLVESGGGLVQAGGSLRLSCAASGRTFTPYAMGWYRQAPGKERELVAAINSDGSTNYADSVKGRFTISRDNAKNTVYLQMNSLKPEDTAVYYCAAGYSLEGDYWGQGTQVTVSS”, “low polyreactivity”.
With “QVQLVESGGGLVQAGGSLRLSCAASGRTFTQYAMGWYRQAPGKERELVARISYSGGTTYYADSVKGRFTISRDNAKNTVYLQMNSLKPEDTAVYYCARDYYGSVRFDHWGQGTQVTVSS”, the “polyreactivity (PSR sort gate)” value is listed as “high polyreactivity”.
With “QVQLVESGGGLVQAGGSLRLSCAASGRTFTQYAMGWYRQAPGKEREMVAAISWRGGSTYYADSVKGRFTISRDNAKNTVYVQMNSLKPEDTAVSYCAKRYFRGYPLYDYWGQGTQVTVSS” the entry was “high polyreactivity”.
Consider “QVQLVESGGGLVQAGGSLRLSCAASGRTFTQYAMRWYRQAPGKERELVAAISWRGGSTYYADSVKGRFTISRDNAKNTVYLQMNSLKPEDTAVYYCAKRYFRGYPLYDYWGQGTQVTVSS”, for which the “polyreactivity (PSR sort gate)” value is recorded as “high polyreactivity”.
For “QVQLVESGGGLVQAGGSLRLSCAASGRTFTRYAMGRYRQAPGKERELVASISGSGGRTNYADSVKGRFTISRDNAKNTVYLQMNSLKPEDTAVYYCAARYRTWFGYWGQGTQVTVSS” the value was “high polyreactivity”; for “QVQLVESGGGLVQAGGSLRLSCAASGRTFTRYAMGWYRQAPGKERELVAAISWSGGSTYYADSVKGRFTISRDNAKNTVYLQMNSLKPEDTAVYYCNAYYYYPEFNYWGQGTQVTVSS”, “high polyreactivity”.
As for “QVQLVESGGGLVQAGGSLRLSCAASGRTFTSYAMGWYRQAPGKERELVAAITRGGRTNYADSVKGRFTISRDNAQNTVYLQMNSLKPEDTAVYYCNADGPGYAAKYYWKYDYWGQVTQVTVSS”, the “polyreactivity (PSR sort gate)” value is recorded as “low polyreactivity”.
With “QVQLVESGGGLVQAGGSLRLSCAASGRTFTSYPMGWYRQAPGKERELVAVITRRGGSTSYADSVKGRFTISRDNAKHTVYLQMNSLKPEDTAVYYCAAKRTWPDVKYIRYGYWGQGTQVTVSS” the entry was “high polyreactivity”; with “QVQLVESGGGLVQAGGSLRLSCAASGRTFTTNAMGWYSQARGKERELVAAINSGGSTNYADSVKGRFTISRDNAKNTVYLQMNRLKPEDTAVYYCAKRQRDYSSVFEVDYWGQGTQVTVSS”, “low polyreactivity”; with “QVQLVESGGGLVQAGGSLRLSCAASGRTFTTYAMGWYRQAPGKERELVAAISGSGGSTYYADSVKGRFTISRDNAKNTVYLQMNSLKPEDTAVYYCATAYYYHGGYYYPYDDYWGQGTQVTVSS”, “low polyreactivity”.
With “QVQLVESGGGLVQAGGSLRLSCAASGRTFTTYAMGWYRQAPGKERELVAAITSGGSTNYADSVKGRFTISRDNAKNTVYLQMNSLKPEDTAVYYCAARFRVYTYSQRHWREFGYWGQGTQVTVSS” the entry was “high polyreactivity”.
